Assay results reported in US20160264649A1.

Assays:
Experiment in all cases: cell-based or functional assay
[1] = target: HIV-1 Env of pseudovirus isolate MGRM-G-001 (subtype G) (HIV-1)
[2] = target: envelope of aMLV pseudovirus (negative control)
[3] = target: HIV-1 Env of pseudovirus isolate MGRM-G-004 (subtype G) (HIV-1)
[4] = target: HIV-1 Env of isolate MGRM-D-011 (subtype D) (HIV-1)
[5] = target: HIV-1 Env of isolate 98CN009 (subtype CRF07_BC) (HIV-1)
[6] = target: HIV-1 Env of isolate MGRM-D-012 (subtype D) (HIV-1)
[7] = target: HIV-1 Env of isolate MGRM-D-022 (subtype D) (HIV-1)
[8] = target: HIV-1 Env of isolate MGRM-D-020 (subtype D) (HIV-1)
[9] = target: HIV-1 Env of isolate MGRM-D-008 (subtype D) (HIV-1)
[10] = target: HIV-1 Env of isolate MGRM-F1-010 (subtype F) (HIV-1)
[11] = target: HIV-1 Env of isolate MGRM-D-013 (subtype D) (HIV-1)
[12] = target: HIV-1 Env of isolate MGRM-F1-008 (subtype F) (HIV-1)
[13] = target: HIV-1 Env of pseudovirus isolate MGRM-G-013 (subtype G) (HIV-1)
[14] = target: HIV-1 Env of isolate MGRM-F1-015 (subtype F) (HIV-1)
[15] = target: HIV-1 Env of isolate MGRM-D-024 (subtype D) (HIV-1)
[16] = target: HIV-1 Env of pseudovirus isolate MGRM-G-027 (subtype G) (HIV-1)
[17] = target: HIV-1 Env of pseudovirus isolate MGRM-G-016 (subtype G) (HIV-1)
[18] = target: HIV-1 Env of isolate MGRM-D-002 (subtype D) (HIV-1)
[19] = target: HIV-1 Env of isolate 92UG024 (subtype D) (HIV-1)
[20] = target: HIV-1 Env of pseudovirus isolate MGRM-G-017 (subtype G) (HIV-1)
[21] = target: HIV-1 Env of isolate MGRM-D-028 (subtype D) (HIV-1)
[22] = target: HIV-1 Env of isolate 92UG005 (subtype D) (HIV-1)
[23] = target: HIV-1 Env of isolate MGRM-F1-020 (subtype F) (HIV-1)
[24] = target: HIV-1 Env of isolate MGRM-F1-012 (subtype F) (HIV-1)
[25] = target: HIV-1 Env of isolate MGRM-F1-013 (subtype F) (HIV-1)
[26] = target: HIV-1 Env of isolate MGRM-F1-006 (subtype F) (HIV-1)
[27] = target: HIV-1 Env of isolate MGRM-D-019 (subtype D) (HIV-1)
[28] = target: HIV-1 Env of isolate MGRM-F1-017 (subtype F) (HIV-1)
[29] = target: HIV-1 Env of isolate MGRM-D-016 (subtype D) (HIV-1)
[30] = target: HIV-1 Env of isolate 98CN006 (subtype CRF08_BC) (HIV-1)
[31] = target: HIV-1 Env of pseudovirus isolate MGRM-G-025 (subtype G) (HIV-1)
[32] = target: HIV-1 Env of isolate MGRM-F1-014 (subtype F) (HIV-1)
[33] = target: HIV-1 Env of pseudovirus isolate MGRM-G-019 (subtype G) (HIV-1)
[34] = target: HIV-1 Env of isolate MGRM-D-018 (subtype D) (HIV-1)
[35] = target: HIV-1 Env of pseudovirus isolate MGRM-G-011 (subtype G) (HIV-1)
[36] = target: HIV-1 Env of pseudovirus isolate MGRM-G-024 (subtype G) (HIV-1)
[37] = target: HIV-1 Env of pseudovirus isolate MGRM-G-009 (subtype G) (HIV-1)
[38] = target: HIV-1 Env of pseudovirus isolate MGRM-G-015 (subtype G) (HIV-1)
[39] = target: HIV-1 Env of isolate 92UG114 (subtype D) (HIV-1)
[40] = target: HIV-1 Env of isolate MGRM-F1-004 (subtype F) (HIV-1)
[41] = target: HIV-1 Env of isolate MGRM-F1-022 (subtype F) (HIV-1)
[42] = target: HIV-1 Env of isolate MGRM-F1-018 (subtype F) (HIV-1)
[43] = target: HIV-1 Env of isolate MGRM-D-003 (subtype D) (HIV-1)
[44] = target: HIV-1 Env of isolate MGRM-D-026 (subtype D) (HIV-1)
[45] = target: HIV-1 Env of pseudovirus isolate MGRM-G-028 (subtype G) (HIV-1)
[46] = target: HIV-1 Env of isolate MGRM-D-005 (subtype D) (HIV-1)
[47] = target: HIV-1 Env of isolate MGRM-F1-021 (subtype F) (HIV-1)
[48] = target: HIV-1 Env of isolate MGRM-D-004 (subtype D) (HIV-1)
[49] = target: HIV-1 Env of pseudovirus isolate MGRM-G-006 (subtype G) (HIV-1)
[50] = target: HIV-1 Env of isolate 92UG046 (subtype D) (HIV-1)
[51] = target: HIV-1 Env of isolate MGRM-D-029 (subtype D) (HIV-1)
[52] = target: HIV-1 Env of pseudovirus isolate MGRM-G-014 (subtype G) (HIV-1)
[53] = target: HIV-1 Env of isolate MGRM-D-021 (subtype D) (HIV-1)
[54] = target: HIV-1 Env of isolate MGRM-D-014 (subtype D) (HIV-1)
[55] = target: HIV-1 Env of isolate MGRM-F1-016 (subtype F) (HIV-1)
[56] = target: HIV-1 Env of isolate 92UG001 (subtype D) (HIV-1)
[57] = target: HIV-1 Env of isolate MGRM-F1-023 (subtype F) (HIV-1)
[58] = target: HIV-1 Env of isolate MGRM-D-001 (subtype D) (HIV-1)

B1: PGT-128 (antibody, V domains shown)
VH: QPQLQESGPTLVEASETLSLTCAVSGDSTAACNSFWGWVRQPPGKGLEWVGSLSHCASYWNRGWTYHNPSLKSRLTLALDTPKNLVFLKLNSVTAADTATYYCARFGGEVLRYTDWPKPAWVDLWGRGTLVTVSS
VL: QSALTQPPSASGSPGQSITISCTGTSNNFVSWYQQHAGKAPKLVIYDVNKRPSGVPDRFSGSKSGNTASLTVSGLQTDDEAVYYCGSLVGNWDVIFGGGTKLTVL
With B1 the IC50 [1] was 0.019 µg/mL, the IC50 [2] was > 50 µg/mL and the IC50 [3] was > 50 µg/mL. For the same binder, the IC50 (neutralization) [4] was 0.007 µg/mL, the IC50 (neutralization) [5] was 0.025 µg/mL and the IC50 (neutralization) [6] was > 50 µg/mL. For the same binder, the IC50 (neutralization) [7] was > 50 µg/mL, the IC50 (neutralization) [8] was 0.011 µg/mL and the IC50 (neutralization) [9] was 0.033 µg/mL. The IC50 (neutralization) [10] was 16.7 µg/mL, the IC50 (neutralization) [11] was 8.85 µg/mL and the IC50 (neutralization) [12] was > 50 µg/mL. The IC50 [13] was 0.995 µg/mL, the IC50 (neutralization) [14] was > 50 µg/mL and the IC50 (neutralization) [15] was 0.067 µg/mL. The IC50 [16] was 0.313 µg/mL, the IC50 [17] was > 50 µg/mL and the IC50 (neutralization) [18] was 0.011 µg/mL. The IC50 (neutralization) [19] was > 50 µg/mL, the IC50 [20] was 0.319 µg/mL and the IC50 (neutralization) [21] was > 50 µg/mL. For the same binder, the IC50 (neutralization) [22] was 0.018 µg/mL, the IC50 (neutralization) [23] was 0.355 µg/mL and the IC50 (neutralization) [24] was 0.007 µg/mL. The IC50 (neutralization) [25] was 12.7 µg/mL, the IC50 (neutralization) [26] was 0.763 µg/mL and the IC50 (neutralization) [27] was > 50 µg/mL. For the same binder, the IC50 (neutralization) [28] was 11.7 µg/mL, the IC50 (neutralization) [29] was > 50 µg/mL and the IC50 (neutralization) [30] was 0.015 µg/mL. It also gave an IC50 [31] of 0.017 µg/mL, an IC50 (neutralization) [32] of 0.277 µg/mL and an IC50 [33] of 0.01 µg/mL. For the same binder, the IC50 (neutralization) [34] was 0.008 µg/mL, the IC50 [35] was 8.21 µg/mL and the IC50 [36] was 0.095 µg/mL. For the same binder, the IC50 [37] was > 50 µg/mL, the IC50 [38] was > 50 µg/mL and the IC50 (neutralization) [39] was 0.083 µg/mL. For the same binder, the IC50 (neutralization) [40] was 0.027 µg/mL, the IC50 (neutralization) [41] was 4.54 µg/mL and the IC50 (neutralization) [42] was 0.023 µg/mL. The IC50 (neutralization) [43] was 0.019 µg/mL, the IC50 (neutralization) [44] was > 50 µg/mL and the IC50 [45] was 0.008 µg/mL. The IC50 (neutralization) [46] was 0.051 µg/mL, the IC50 (neutralization) [47] was > 50 µg/mL and the IC50 (neutralization) [48] was 24.9 µg/mL. For the same binder, the IC50 [49] was > 50 µg/mL, the IC50 (neutralization) [50] was > 50 µg/mL and the IC50 (neutralization) [51] was > 50 µg/mL. For the same binder, the IC50 [52] was 0.004 µg/mL, the IC50 (neutralization) [53] was 0.014 µg/mL and the IC50 (neutralization) [54] was 0.013 µg/mL. The IC50 (neutralization) [55] was 1.21 µg/mL, the IC50 (neutralization) [56] was > 50 µg/mL and the IC50 (neutralization) [57] was 0.007 µg/mL. It also gave an IC50 (neutralization) [58] of 0.138 µg/mL.
